In patent US20120114652A1 (AbbVie / Abbott, published 2012):
Numbering of substitutions follows the chain as printed. Values belong to the binder of their own block, whether it stands above or below them.

Legend:
Experiment in all cases: cell-based or functional assay
rat PAI-1 = target: T1, rat PAI-1 (rat, UniProt P20961 24-402)
T1 sequence: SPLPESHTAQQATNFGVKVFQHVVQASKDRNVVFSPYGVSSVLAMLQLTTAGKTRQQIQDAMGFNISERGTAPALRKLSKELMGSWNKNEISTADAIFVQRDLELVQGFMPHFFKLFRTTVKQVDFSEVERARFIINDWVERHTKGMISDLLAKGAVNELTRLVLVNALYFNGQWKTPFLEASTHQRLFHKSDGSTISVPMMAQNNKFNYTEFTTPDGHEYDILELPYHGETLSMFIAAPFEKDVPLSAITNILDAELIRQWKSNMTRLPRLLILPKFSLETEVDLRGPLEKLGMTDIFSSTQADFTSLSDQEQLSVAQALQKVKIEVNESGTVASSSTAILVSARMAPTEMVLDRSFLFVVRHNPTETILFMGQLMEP

[1] = target: T2, human PAI-1, active, wild-type, non-glycosylated (E. coli-derived) (human, UniProt P05121 24-402)
mouse PAI-1 [2] = target: T3, mouse PAI-1 (mouse, UniProt P22777 24-401)
T3 sequence: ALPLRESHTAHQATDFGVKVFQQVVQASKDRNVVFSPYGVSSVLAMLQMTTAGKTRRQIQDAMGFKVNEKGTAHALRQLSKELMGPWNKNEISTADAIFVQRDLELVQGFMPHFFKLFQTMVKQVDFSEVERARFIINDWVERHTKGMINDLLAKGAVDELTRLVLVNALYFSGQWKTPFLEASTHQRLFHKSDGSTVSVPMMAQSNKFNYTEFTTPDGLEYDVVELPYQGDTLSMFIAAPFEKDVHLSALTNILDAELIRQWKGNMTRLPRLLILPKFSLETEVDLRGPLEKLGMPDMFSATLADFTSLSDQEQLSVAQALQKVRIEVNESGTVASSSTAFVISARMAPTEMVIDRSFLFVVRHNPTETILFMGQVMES

cynomolgus PAI-1 = cynomolgus PAI-1 (cynomolgus, UniProt P05121 24-402 (human entry), limits assumed)
[3] = target: T2, human PAI-1, active, wild-type, …; remark: listed apart in the source
mouse PAI-1 [4] = target: T3, mouse PAI-1; remark: listed apart in the source

B1: Antibody 10, scFv (scFv, V domains shown)
VH: QVQLQQSGAEVKKPGSSVKVSCKASGGTFSSYAISWVRQAPGQGLEWMGGIIPTFGTANYAQKFQGRVTITADESTSTAYMELSSLRSEDTAVYYCAREKRQWLEGHFDYWGRGTPVTVSS
VL: DIQMTQSPSFLSASIGDRVAITCRASEGIYHSLAWYQQKPGKAPKLLIYRASSLASGAPSRFSGSGSGTDFTLTISSLQPDDFATYYCQQYSNYPLTFGGGTRLEIK
- IC50 chromogenic (rat PAI-1): 296 nM
- IC50 ratio rat/human (rat PAI-1): 132
- IC50 chromogenic [1]: 2.2 nM
- IC50 chromogenic (mouse PAI-1 [2]): 334 nM
- IC50 ratio mouse/human (mouse PAI-1 [2]): 149
- IC50 chromogenic (cynomolgus PAI-1): 0.5 nM
- IC50 ratio cyno/human (cynomolgus PAI-1): 0.2

B2: Antibody 25, scFv (scFv, V domains shown)
VH: B1 VH with S85G, K100R, R113Q
VL: B1 VL with A20T, G28S, S32E, R50K, D70A, R103K
- IC50 chromogenic (rat PAI-1): 322 nM
- IC50 ratio rat/human (rat PAI-1): 24.6
- IC50 chromogenic [1]: 13.1 nM
- IC50 chromogenic (mouse PAI-1 [2]): 172 nM
- IC50 ratio mouse/human (mouse PAI-1 [2]): 13.1
- IC50 chromogenic (cynomolgus PAI-1): 4.6 nM
- IC50 ratio cyno/human (cynomolgus PAI-1): 0.4

B3: Antibody 05, scFv (scFv, V domains shown)
VH: B1 VH with G56S, Q65R, S85G
VL: B1 VL with A20T, S32Q, R103K
- IC50 chromogenic (rat PAI-1): 860 nM
- IC50 ratio rat/human (rat PAI-1): 172
- IC50 chromogenic [1]: 5 nM
- IC50 chromogenic (mouse PAI-1 [2]): 718 nM
- IC50 ratio mouse/human (mouse PAI-1 [2]): 144
- IC50 chromogenic (cynomolgus PAI-1): 0.5 nM
- IC50 ratio cyno/human (cynomolgus PAI-1): 0.1

B4: Antibody 02, scFv (scFv, V domains shown)
VH: B1 VH with Q5V, P116L
VL: B1 VL with F10T, I15V, A20T, R50K, A58V, D70E, N93D, R103K, L104V
- IC50 chromogenic (rat PAI-1): 530 nM
- IC50 ratio rat/human (rat PAI-1): 891
- IC50 chromogenic [1]: 0.6 nM
- IC50 chromogenic (mouse PAI-1 [2]): 553 nM
- IC50 ratio mouse/human (mouse PAI-1 [2]): 929
- IC50 chromogenic (cynomolgus PAI-1): 1.1 nM
- IC50 ratio cyno/human (cynomolgus PAI-1): 1.8

B6: Antibody 01, scFv (scFv, V domains shown)
VH: B1 VH with Q5V, T54I, P116L
VL: B1 VL with F10T, I15V, A20T, H31R, R50K, A58V, D70E, R103K, L104V
- IC50 HT-1080 Exo PAI-1 [3]: 23.9 nM
- IC50 HT-1080 Exo PAI-1 (mouse PAI-1 [4]): 34.5 nM
- IC50 chromogenic (rat PAI-1): 208 nM
- IC50 ratio rat/human (rat PAI-1): 60.5
- IC50 chromogenic [1]: 3.4 nM
- IC50 chromogenic (mouse PAI-1 [2]): 28.3 nM
- IC50 ratio mouse/human (mouse PAI-1 [2]): 8.2
- IC50 chromogenic (cynomolgus PAI-1): 1.2 nM
- IC50 ratio cyno/human (cynomolgus PAI-1): 0.4

Other lines, results leading:

- IC50 chromogenic (rat PAI-1): 7.9 nM
- IC50 ratio rat/human (rat PAI-1): 0.3
- IC50 chromogenic [1]: 26 nM
- IC50 chromogenic (mouse PAI-1 [2]): 6.4 nM
- IC50 ratio mouse/human (mouse PAI-1 [2]): 0.2
- IC50 chromogenic (cynomolgus PAI-1): 10.8 nM
- IC50 ratio cyno/human (cynomolgus PAI-1): 0.4
B5: Antibody 19, scFv (scFv, V domains shown)
VH: B1 VH with T54I, G56D, S85G, K100R
VL: B1 VL with Q3R, A20T, S32E, D70E, R103K

- IC50 chromogenic (rat PAI-1): 297 nM
- IC50 ratio rat/human (rat PAI-1): 165
- IC50 chromogenic [1]: 1.8 nM
- IC50 chromogenic (mouse PAI-1 [2]): 54.9 nM
- IC50 ratio mouse/human (mouse PAI-1 [2]): 30.5
- IC50 chromogenic (cynomolgus PAI-1): 0.1 nM
- IC50 ratio cyno/human (cynomolgus PAI-1): 0.1
B7: Antibody 03, scFv (scFv, V domains shown)
VH: B1 VH with S85G
VL: B1 VL with A20T, H31R, R50K, S77G, R103K

- IC50 chromogenic (rat PAI-1): 140 nM
- IC50 ratio rat/human (rat PAI-1): 48.6
- IC50 chromogenic [1]: 2.9 nM
- IC50 chromogenic (mouse PAI-1 [2]): 247 nM
- IC50 ratio mouse/human (mouse PAI-1 [2]): 85.8
- IC50 chromogenic (cynomolgus PAI-1): 1.2 nM
- IC50 ratio cyno/human (cynomolgus PAI-1): 0.4
B8: Antibody 13, scFv (scFv, V domains shown)
VH: B1 VH with S85D
VL: B1 VL with A20T, R103K

- IC50 chromogenic (rat PAI-1): 78.2 nM
- IC50 ratio rat/human (rat PAI-1): 34.4
- IC50 chromogenic [1]: 2.3 nM
- IC50 chromogenic (mouse PAI-1 [2]): 27.8 nM
- IC50 ratio mouse/human (mouse PAI-1 [2]): 12.2
- IC50 chromogenic (cynomolgus PAI-1): 0.6 nM
- IC50 ratio cyno/human (cynomolgus PAI-1): 0.3
B9: Antibody 12, scFv (scFv, V domains shown)
VH: B1 VH with G56P, S85G
VL: B1 VL with A20T, S32N, R103K

- IC50 chromogenic (rat PAI-1): 49.2 nM
- IC50 ratio rat/human (rat PAI-1): 12
- IC50 chromogenic [1]: 4.1 nM
- IC50 chromogenic (mouse PAI-1 [2]): 32.2 nM
- IC50 ratio mouse/human (mouse PAI-1 [2]): 7.9
- IC50 chromogenic (cynomolgus PAI-1): 1.6 nM
- IC50 ratio cyno/human (cynomolgus PAI-1): 0.4
B10: Antibody 21, scFv (scFv, V domains shown)
VH: B1 VH with Q1P, S85G
VL: B1 VL with T5A, A20T, S32N, R103K

- IC50 chromogenic (rat PAI-1): 127 nM
- IC50 ratio rat/human (rat PAI-1): 39.3
- IC50 chromogenic [1]: 3.2 nM
- IC50 chromogenic (mouse PAI-1 [2]): 140 nM
- IC50 ratio mouse/human (mouse PAI-1 [2]): 43.3
- IC50 chromogenic (cynomolgus PAI-1): 1.1 nM
- IC50 ratio cyno/human (cynomolgus PAI-1): 0.3
B11: Antibody 24, scFv (scFv, V domains shown)
VH: B1 VH with G56V, T69S, S85G
VL: B1 VL with A20T, S32A, R103K
